Experimental data taken from publication PMC8546555, “Colicin-Mediated Transport of DNA through the Iron Transporter FepA” (mBio, 2021).

Target: T1, FepA overexpressed from pBAD/Myc-HisB (E. coli, UniProt P05825 23-746)
T1 construct: FepA, outer membrane ferric enterobactin transporter of E. coli; source: E. coli BW25113 ΔFepA (JW5086-3) or BL21(DE3), pBAD/Myc-HisB, overexpressed; on live cells, or in a detergent-extracted OM protein fraction
T1 sequence: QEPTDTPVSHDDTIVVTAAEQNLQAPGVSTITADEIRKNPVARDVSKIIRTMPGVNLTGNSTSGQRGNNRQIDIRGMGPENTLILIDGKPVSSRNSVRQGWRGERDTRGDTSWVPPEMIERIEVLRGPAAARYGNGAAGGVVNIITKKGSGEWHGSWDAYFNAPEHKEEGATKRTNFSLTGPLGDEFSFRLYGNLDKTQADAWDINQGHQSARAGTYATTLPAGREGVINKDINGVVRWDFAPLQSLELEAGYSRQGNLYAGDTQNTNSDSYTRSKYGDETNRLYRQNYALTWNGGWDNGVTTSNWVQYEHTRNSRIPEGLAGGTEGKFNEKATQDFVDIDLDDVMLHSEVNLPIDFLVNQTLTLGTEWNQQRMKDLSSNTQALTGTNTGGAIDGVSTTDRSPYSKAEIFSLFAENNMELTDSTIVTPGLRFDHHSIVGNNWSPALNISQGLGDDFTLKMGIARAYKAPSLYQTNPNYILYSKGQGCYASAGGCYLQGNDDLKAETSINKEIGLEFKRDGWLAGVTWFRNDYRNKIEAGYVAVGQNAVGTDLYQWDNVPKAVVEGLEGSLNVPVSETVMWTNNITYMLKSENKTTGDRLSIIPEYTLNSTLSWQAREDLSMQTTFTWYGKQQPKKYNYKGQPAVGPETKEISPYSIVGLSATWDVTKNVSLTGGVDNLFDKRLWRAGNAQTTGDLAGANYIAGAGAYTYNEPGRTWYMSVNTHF
Test: native MS; 60 mg ColB-RT added to a 5-liter culture of BW25113(ΔFepA) cells overexpressing FepA; complex detergent extracted, purified by nickel affinity and size exclusion chromatography; 100 mM ammonium acetate, 1% β-OG, pH 6.9
Details: one partner purified

B1: ColB-RT (341 aa) (domain or fragment)
chain: MSDNEGSVPTEGIDYGDTMVVWPSTGRIPGGDVKPGGSSGLAPSMPPGWGDYSPQGIALVQSVLFPGIIRRIILDKELEEGDWSGWSVSVHSPWGNEKVSAARTVLENGLRGGLPEPSRPAAVSFARLEPASGNEQKIIRLMVTQQLEQVTDIPASQLPAAGNNVPVKYRLTDLMQNGTQYMAIIGGIPMTVPVVDAVPVPDRSRPGTNIKDVYSAPVSPNLPDLVLSVGQMNTPVRSNPEIQEDGVISETGNYVEAGYTMSSNNHDVIVRFPEGSGVSPLYISAVEILDSNSLSQRQEAENNAKDDFRVKKEQENDEKTVLTKTSEVIISVGDKVGEYLG
notes: not shown: His6, C-terminal, kept
B1 was tested. Which “stoichiometry N” value did it give?
The value was 1.
